{"source": "the nanobody polyreactivity screen of Harvey et al. (2022)", "data": [{"assay": "yeast display, Sf9 membrane polyspecificity reagent, FACS + sequencing; frameworks hold sequencing errors", "in_short": "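A synthetic nanobody library was expressed on Saccharomyces cerevisiae BJ5465 by galactose induction for 36–48 hours. The library was stained for 1 hour at 4 °C with 10% biotinylated, detergent-solubilized Sf9 membrane reagent and enriched with streptavidin microbeads before FACS. Low and high (top ~1%) gates were set on anti-HA fluorescence for expression and streptavidin fluorescence for reagent binding, and each polyreactivity label reflects the gate of origin.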", "values": [{"sequence": "QVQLVESGGGLVQAGGSLRLSCAASGRIFDPNAMGWYRQAPGKERELVAAISSRSGSTFYADSVKGRFTISRDNAKNTVYLQMNSLKPEDTAVYYCAAVYRFYKHNYWGQGTQVTVSS", "polyreactivity (PSR sort gate)": "high polyreactivity"}, {"sequence": "QVQLVESGGGLVQAGGSLRLSCAASGRIFDPYAMGWYRQAPGKERELVAAINIGGGTNYADSVKGRFTISRDNAKNTVYLQMNSLKPEDTAVYYCAAPVPAYQFYYRLKSFGRRYDHWGQGTQVTVSS", "polyreactivity (PSR sort gate)": "low polyreactivity"}, {"sequence": "QVQLVESGGGLVQAGGSLRLSCAASGRIFDQNAMGWYRQAPGKERELVAAITWSGGSTNYADSVKVRFTISRDNSKNTVYLLMNSLKTEDTAVYYCNKVSYGYSTYGYWGQGTQVTVSS", "polyreactivity (PSR sort gate)": "low polyreactivity"}, {"sequence": "QVQLVESGGGLVQAGGSLRLSCAASGRIFDRNAMGWYRQATGKERELVARIDPGDDTNYADSVKGRFTISRDNAKNTVYLLMNSLKPEDTAVYYCATDPDYVLYRTAYYEYDYWGHGTQVTVSS", "polyreactivity (PSR sort gate)": "low polyreactivity"}, {"sequence": "QVQLVESGGGLVQAGGSLRLSCAASGRIFDRNTMGWYRQAPGKEREFVAAISGSGGRTYYADSVKGRFTISRDNAKNTVYLQMNSLKPEDTAVYYCAAYYSRQYVGYGYWGQGTQVTVSS", "polyreactivity (PSR sort gate)": "high polyreactivity"}, {"sequence": "QVQLVESGGGLVQAGGSLRLSCAASGRIFDRYAMGWYREAPGKERELVAAISGSGGRTYYADSVKGRFTISRDNAKNTVYLQMNSLKPEDTAVYYCAVKFSLYGQGYPKGDYWGQGTQVTVSS", "polyreactivity (PSR sort gate)": "high polyreactivity"}, {"sequence": "QVQLVESGGGLVQAGGSLRLSCAASGRIFDRYVMGWYRQAPGKERELVAAISQSGGGTYYADSVKGRFTISRDNAKNTVYLQMNSLNPEDTAVYYCAARGTGYHGYGYWGQGSQVTVSS", "polyreactivity (PSR sort gate)": "high polyreactivity"}, {"sequence": "QVQLVESGGGLVQAGGSLRLSCAASGRIFDSNALGWYRQAPGKERELVAAISYDGGSTYYADSVKGRFTISRDNAKNTVYLQMNSLKPEDTAVYYCAADDGWYYYYGYDYWGQGTQVTVSS", "polyreactivity (PSR sort gate)": "low polyreactivity"}, {"sequence": "QVQLVESGGGLVQAGGSLRLSCAASGRIFDSYAMGWYRQAPGKERELVAVISNNDGTTYYADSVKGRFTISRDNAKKTFYLQMNSLKPEDTAVYYCAAEEPLFGYLWYVVTYAGFYDYWGQGTQVTVSS", "polyreactivity (PSR sort gate)": "low polyreactivity"}, {"sequence": "QVQLVESGGGLVQAGGSLRLSCAASGRIFDSYTMGWYRQAPGKERELVAAISRGGGSTYYADSVKGRFTISRDNAKNTVYLQMNSLKPEDTAVYYCAASSYLNSRFKFDYWGQGTQVTVSS", "polyreactivity (PSR sort gate)": "low polyreactivity"}, {"sequence": "QVQLVESGGGLVQAGGSLRLSCAASGRIFDTYAMGWYSQAPGKERELVASISIDGSTYYADSVKGRFTISRDNAKNTVYLQMNSLKPEDTAVYYCNADGRYYTVRFEYWGQGTQVTVSS", "polyreactivity (PSR sort gate)": "low polyreactivity"}, {"sequence": "QVQLVESGGGLVQAGGSLRLSCAASGRIFDVNAMGWYRQAPGKEREFVAAINSRGDSTYYADSVKGRFTISRDNAKNTVYLQMNSLKPEDTAVYYCNVRGYSYSYRFWRYDYWGQGTQVTVSS", "polyreactivity (PSR sort gate)": "high polyreactivity"}, {"sequence": "QVQLVESGGGLVQAGGSLRLSCAASGRIFDVYAMGWYRQAHGKERELVARISDGGGSTYYADSVKGRFTISRDNAKNTVYLQMNSLKPEDTAVYYCASGGDLRLDRRFAFVSRGDYWGQGTQVTVSS", "polyreactivity (PSR sort gate)": "low polyreactivity"}, {"sequence": "QVQLVESGGGLVQAGGSLRLSCAASGRIFDVYAMGWYRQAPGKERELVASISWSDGSTYYADSVKGRFTLSRDNAKNTVYLQMNSLKPEDTAVYYCNALTELGGRWDDYWGQGTQVTVSS", "polyreactivity (PSR sort gate)": "low polyreactivity"}, {"sequence": "QVQLVESGGGLVQAGGSLRLSCAASGRIFDVYAMGWYRQAPVKERELVAAITWRGGTTYYADSVKGRFTISRDNAKNTVYLQMHTLKPEDTAVYYCNADLVYYSKHQKYSYDYWGQGTQVTVSS", "polyreactivity (PSR sort gate)": "low polyreactivity"}, {"sequence": "QVQLVESGGGLVQAGGSLRLSCAASGRIFDVYEMGWYRQAPGKERELVAAMTWSGTSTYYADSVKGRFTISRDNAKNTVYLQMNSLKPEDTAVYYCNALSYGRYLNYRGGMDYWGQGTQVTVSS", "polyreactivity (PSR sort gate)": "high polyreactivity"}, {"sequence": "QVQLVESGGGLVQAGGSLRLSCAASGRIFDYAMGWYRQAPGKERELVAAINSAGSTNYADSVKGRFTISRDNAKNTVYLQMNSLKPEDTAVYYCNTDYGSSYNYWGQGTQVTVSS", "polyreactivity (PSR sort gate)": "high polyreactivity"}, {"sequence": "QVQLVESGGGLVQAGGSLRLSCAASGRIFDYNAMGWYRQAPGKERELVAAISVSGGSTYYADSVKGRFTISRDNAKNTVYLQMNSLKPEDTAVYYCNAGYILDSFRYDHWGHGTQVTVSS", "polyreactivity (PSR sort gate)": "low polyreactivity"}, {"sequence": "QVQLVESGGGLVQAGGSLRLSCAASGRIFDYNTMGWYRQAPGKERELVAAITGGTGSTYYADSVKGRFTISRDNAKNTVYLHMNSLKPEDTAVYYCAAGFHKRVTPEILYDFWGQGTQVTVSS", "polyreactivity (PSR sort gate)": "low polyreactivity"}, {"sequence": "QVQLVESGGGLVQAGGSLRLSCAASGRIFDYNTMGWYRQAPGKERELVAAITGGTGSTYYADSVKGRFTISRDNAKNTVYLQMNSLKPEDTAVYYCAAGFHKRVTPEILYDYWGQGTQVTVSS", "polyreactivity (PSR sort gate)": "low polyreactivity"}, {"sequence": "QVQLVESGGGLVQAGGSLRLSCAASGRIFDYYAMGWYRQAPGKERELVAAINSGGSTYYADSVKGRFTISRDNAKNTVYLQMNSLKPEDTAVYYCNALRKSLRGGDYWGQGTQVTVSS", "polyreactivity (PSR sort gate)": "high polyreactivity"}, {"sequence": "QVQLVESGGGLVQAGGSLRLSCAASGRIFDYYAMGWYRQAPGKERELVAAITSGGTTTYYADSVKGRFTNSRDNAKNTVYLQLNSLKPEDTAVYFCAKYPYHIYHTDGDYWGQGTQVTVSS", "polyreactivity (PSR sort gate)": "low polyreactivity"}, {"sequence": "QVQLVESGGGLVQAGGSLRLSCAASGRIFDYYAMGWYRQAPGKERELVAAITVRGGTTYYADSVKGRFTISRDNAKNTVDLQMNSLKPEDTAVYYCAASDRRRYYYWGQGTQVTVSS", "polyreactivity (PSR sort gate)": "high polyreactivity"}, {"sequence": "QVQLVESGGGLVQAGGSLRLSCAASGRIFDYYDLGWYRQAPRKERELVAAITSSGTSTYYADSVKGRFTISRDNAKNTVYLQMNSLKPEDTAVYYCNARSIRPWGENGYWGQGTQVTVSS", "polyreactivity (PSR sort gate)": "high polyreactivity"}, {"sequence": "QVQLVESGGGLVQAGGSLRLSCAASGRIFEDYAMGWYRQAPGKERELVAAISSGGSTYADSVKGRFTISRDNAKNTVYLQMNSLKPEDTAVYYCAAYYRRSTYYYWGQGTQVTVSS", "polyreactivity (PSR sort gate)": "high polyreactivity"}, {"sequence": "QVQLVESGGGLVQAGGSLRLSCAASGRIFEGYAMGWYRQAPGKEELVAAITSDASTYYADSVKGRFTISRDNAKNTVYLQMNSLNPEDTAVYYCNAYTRGLEYDYWGQGTQVTVSS", "polyreactivity (PSR sort gate)": "high polyreactivity"}, {"sequence": "QVQLVESGGGLVQAGGSLRLSCAASGRIFEHYAMGWYRQAPGKERELVAAITVSGGSTYYADSVKGRFTISRDNAKNTVYLQMNSLKPEDTAVYYCNADQRDYGSYVTKLDYWGQGTQVTVSS", "polyreactivity (PSR sort gate)": "low polyreactivity"}, {"sequence": "QVQLVESGGGLVQAGGSLRLSCAASGRIFEIYALGWYRQAPGKERELVAAISWRGVSTYYADSVKGRFTISRDNAKNTVYLQMKSLKPEDTAVYYCNKDVDYFWYVEYDYWGQGTQVTVSS", "polyreactivity (PSR sort gate)": "low polyreactivity"}, {"sequence": "QVQLVESGGGLVQAGGSLRLSCAASGRIFERYAMGWYRQAPGKERELVAAISVSGSGTYYADSVKGRFTISRDNAKNTVYLQMNSLKPEDTAVYYCAADASLLGLFQGYDYWGQGTQVTVSS", "polyreactivity (PSR sort gate)": "low polyreactivity"}, {"sequence": "QVQLVESGGGLVQAGGSLRLSCAASGRIFEWNAMGWYRQAPGKERELVAAISWSGGSTYYADSVKGRFTISRDNAKNTVYLQMNSLKPEDTAVYYCAALTYRWSARDYWGQGTQVTVSS", "polyreactivity (PSR sort gate)": "high polyreactivity"}, {"sequence": "QVQLVESGGGLVQAGGSLRLSCAASGRIFFANTMGWYRQATGKERELVAAISLSSGSRYYADSVKGRFTISRDNAKNTVYLQMNSLKPEDTAVYYCAARGYSHVASRLYYYWGQGTQVTVSS", "polyreactivity (PSR sort gate)": "high polyreactivity"}, {"sequence": "QVQLVESGGGLVQAGGSLRLSCAASGRIFFAYAMGWYRQAQGKEREFVAAISDNDGSTYYADSVKGRFTISRDNAKNTVYLQMNSLKPEDTAVYYCNADLGYVYDYCGQGTQVTVSS", "polyreactivity (PSR sort gate)": "low polyreactivity"}, {"sequence": "QVQLVESGGGLVQAGGSLRLSCAASGRIFFDYAMGWYRQAPGKERELVADISYNGGSTNYADSVKGRFTISRDNAKNTVYLQMNSLKPEDTAVYYCNRAFVPVYDLDYYWGQGTQVTVSS", "polyreactivity (PSR sort gate)": "low polyreactivity"}, {"sequence": "QVQLVESGGGLVQAGGSLRLSCAASGRIFFDYAMGWYRQAPGKERELVAVITSSGSSTYYADSVKGRFTISRDNAKNTVYLQMNSLKPEDTAVYYCNAARLYSGLWYGYDYWGQGTQVTVSS", "polyreactivity (PSR sort gate)": "high polyreactivity"}, {"sequence": "QVQLVESGGGLVQAGGSLRLSCAASGRIFFGYAMGWYRLAPGKERELVAAISYGGGRTYYADSVKGRFTISRDNAKNTVSLQMNSLKPEDTAVDYCNKRVTGGSWSPGHYRYNYWGQGSQVTVSS", "polyreactivity (PSR sort gate)": "high polyreactivity"}, {"sequence": "QVQLVESGGGLVQAGGSLRLSCAASGRIFFGYAMGWYRQAPGKERELVASISRGGSTNYADSVKGRFTISRDNAKNTVYLQMNSLKPEDTAVYYCAASRYLQRYGMYYWGQGTQVTVSS", "polyreactivity (PSR sort gate)": "high polyreactivity"}, {"sequence": "QVQLVESGGGLVQAGGSLRLSCAASGRIFFGYAMGWYRQAPGKERELVATITSGGSTYYADSVKGRFTISRDNAKNTVYLQMNSLKPEDTAVYYCASQLHWVFTSGWAYRGSYDYWGQGTQVTVSS", "polyreactivity (PSR sort gate)": "low polyreactivity"}, {"sequence": "QVQLVESGGGLVQAGGSLRLSCAASGRIFFLYAMGWYRQAPGKERELVASITRRGGSTYYADSVKGRFTISRDNAKNTVYLQMNSLKPEDTAVYYCAAELYRSNVYHYDYWGQGTQVTVSS", "polyreactivity (PSR sort gate)": "high polyreactivity"}, {"sequence": "QVQLVESGGGLVQAGGSLRLSCAASGRIFFPYDMGWYRQAPGKERELVAAITNSGGRTYYADSVKGRFTISRDNAKNTVYLQMNSLKPEDTAVYYCAARYGSGGDYWGQGTQVTVSS", "polyreactivity (PSR sort gate)": "low polyreactivity"}, {"sequence": "QVQLVESGGGLVQAGGSLRLSCAASGRIFFRYAMGWSRQAPGKEREFVATITWSGGRTHYADSVKGRFTISRDNAKNTVYLQMNSLKPEDTAVYYCAASYHRYAFDYWGQGTQVTGSS", "polyreactivity (PSR sort gate)": "high polyreactivity"}, {"sequence": "QVQLVESGGGLVQAGGSLRLSCAASGRIFFTNAMGWYRQAPGKERELVAAISKSGARTYYADSVKGRFTISRDNAKNTVYLQMNSLKPEDTAVYYCAADVSVSGYGYWGQGTQVTVSS", "polyreactivity (PSR sort gate)": "high polyreactivity"}, {"sequence": "QVQLVESGGGLVQAGGSLRLSCAASGRIFFTNAMGWYRQAPGKERELVATISSSDGSTYYADSVKGRFTISRDNAKNTVYLQMNSLNPEDTAVYYCAALYSFRGSRQYTYKYYYWGQGTQVTVSS", "polyreactivity (PSR sort gate)": "high polyreactivity"}, {"sequence": "QVQLVESGGGLVQAGGSLRLSCAASGRIFFTYAMGWSRQAPGKERELVAAISWSGGGTYYADSVKGRFTISRDNAKNTVYLQMNSLKPEDTAVYYCAADNTILFDYWGQGTQVTVSS", "polyreactivity (PSR sort gate)": "low polyreactivity"}]}]}
